This note sets out measurements from publication doi:10.1101/2023.05.17.541096 (bioRxiv, 2023).

The target in this test is T1, human FIGNL1ΔN (FIGNL1 without the N-terminal 284 aa) (human, UniProt Q6PIW4 285-674).
T1 sequence: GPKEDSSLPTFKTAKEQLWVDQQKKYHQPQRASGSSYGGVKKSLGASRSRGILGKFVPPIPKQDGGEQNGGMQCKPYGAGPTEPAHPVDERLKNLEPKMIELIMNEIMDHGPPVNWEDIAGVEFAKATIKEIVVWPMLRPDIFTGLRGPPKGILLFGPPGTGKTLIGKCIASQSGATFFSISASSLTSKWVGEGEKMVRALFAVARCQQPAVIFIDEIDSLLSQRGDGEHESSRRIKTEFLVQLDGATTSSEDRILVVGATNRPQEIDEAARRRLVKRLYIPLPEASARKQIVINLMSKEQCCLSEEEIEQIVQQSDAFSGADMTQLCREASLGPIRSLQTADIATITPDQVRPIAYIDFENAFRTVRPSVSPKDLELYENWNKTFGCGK
The test is described as follows: native gel or EMSA.

B1: human RAD51 (natural protein)
chain: MAMQMQLEANADTSVEEESFGPQPISRLEQCGINANDVKKLEEAGFHTVEAVAYAPKKELINIKGISEAKADKILAEAAKLVPMGFTTATEFHQRRSEIIQITTGSKELDKLLQGGIETGSITEMFGEFRTGKTQICHTLAVTCQLPIDRGGGEGKAMYIDTEGTFRPERLLAVAERYGLSGSDVLDNVAYARAFNTDHQTQLLYQASAMMVESRYALLIVDSATALYRTDYSGRGELSARQMHLARFLRMLLRLADEFGVAVVITNQVVAQVDGAAMFAADPKKPIGGNIIAHASTTRLYLRKGRGETRICKIYDSPCLPEAEAMFAINADGVGDAKD
Turning to B1, the binding result is listed as “binds”.
